Reference: PMC2890305 (Chemical biology & drug design, 2010)
Where a SMILES comes first, the peptide text is derived from it. Bridges are numbered along the chain shown (N, C = ends). Where no end group is shown, it is not given here.

Columns and labels:
[1] = target: T1, Aminopeptidase N (APN) (Rattus norvegicus, UniProt P15684); experiment: Inhibition of APN aminopeptidase activity, increasing peptide concentrations; assay type: biochemical
T1 sequence (P15684 33-965 limits assumed): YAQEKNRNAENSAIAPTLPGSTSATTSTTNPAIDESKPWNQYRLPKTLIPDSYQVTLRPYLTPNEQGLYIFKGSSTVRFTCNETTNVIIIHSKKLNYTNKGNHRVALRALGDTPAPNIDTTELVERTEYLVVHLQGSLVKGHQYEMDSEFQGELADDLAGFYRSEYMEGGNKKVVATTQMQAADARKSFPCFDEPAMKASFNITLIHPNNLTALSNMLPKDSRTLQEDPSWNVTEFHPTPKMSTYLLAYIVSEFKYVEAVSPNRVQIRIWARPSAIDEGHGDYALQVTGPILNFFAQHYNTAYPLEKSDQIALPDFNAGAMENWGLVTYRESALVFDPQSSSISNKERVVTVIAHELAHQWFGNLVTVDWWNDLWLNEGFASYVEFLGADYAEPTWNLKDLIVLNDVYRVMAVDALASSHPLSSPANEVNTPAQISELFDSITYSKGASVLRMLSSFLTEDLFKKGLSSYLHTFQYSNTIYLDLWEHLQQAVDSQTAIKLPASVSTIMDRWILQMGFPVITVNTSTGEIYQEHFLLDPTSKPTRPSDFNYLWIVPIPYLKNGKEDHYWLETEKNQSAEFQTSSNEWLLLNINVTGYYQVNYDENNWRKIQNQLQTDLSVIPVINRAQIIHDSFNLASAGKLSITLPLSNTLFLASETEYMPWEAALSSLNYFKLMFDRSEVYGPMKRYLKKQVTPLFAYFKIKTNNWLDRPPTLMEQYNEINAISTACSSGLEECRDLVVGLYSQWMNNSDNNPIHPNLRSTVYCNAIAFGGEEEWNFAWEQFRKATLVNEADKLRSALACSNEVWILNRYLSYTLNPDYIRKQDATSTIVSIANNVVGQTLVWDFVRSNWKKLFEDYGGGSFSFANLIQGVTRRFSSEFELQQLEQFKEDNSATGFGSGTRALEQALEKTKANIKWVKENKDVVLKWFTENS

[2] = test system: APN from Aeromonas proteolytica; conditions: ref [35]; cited from earlier work
[3] = target: T2, CPNGRC (disulfide 1-6 (inferred)); experiment: enzyme inhibition assay
T2 chain: CPNGRC

[4] = target: T3, CNGRC (disulfide 1-5 (inferred)); experiment: enzyme inhibition assay
T3 chain: CNGRC

[5] = target: the molecule itself; experiment: analytical ultracentrifugation
[6] = target: T4, APN (Rattus norvegicus, UniProt P15684); experiment: Analytical ultracentrifugation, sedimentation equilibrium; assay type: binding; conditions: 3 nM enzyme
T4 sequence (P15684 33-965 limits assumed): T1 sequence (P15684 33-965 limits assumed)

**Q.** For `N=C(N)NCCC[C@@H]1NC(=O)CNC(=O)[C@H](CC(N)=O)NC(=O)[C@@H]2CCCN2C(=O)[C@@H](N)CSSC[C@@H](C(=O)O)NC1=O` [CPNGRC] (H-CPNGRC-OH; disulfide 1-6), which IC50 [1] is on record?
**A.** The IC50 was 10 µM.

**Q.** With `CC(C)C[C@H](NC(=O)[C@@H](O)[C@H](N)Cc1ccccc1)C(=O)O` [bestatin] as the molecule, how does the “affinity for APN from Aeromonas proteolytica” value [2] read?
**A.** The value was “slow binding nanomolar affinity”.

B1: Aminopeptidase N (APN/CD13) ECD (protein)
chain: T1 sequence (P15684 33-965 limits assumed)
**Q.** Which IC50 [3] does the source give for B1 here?
**A.** The IC50 was ~10 µM.

**Q.** What about the IC50 [4] of the same molecule?
**A.** The IC50 was ~300 µM.

**Q.** What about the Kd [5] of the same molecule?
**A.** Its Kd is 1.6 µM.

B2: APN: Aminopeptidase N isolated from rat renal brush-border membranes, treated with papain to solubilize the extracellular domains (protein, UniProt P15684 33-965, looked up)
extracellular domain: T1 sequence (P15684 33-965 limits assumed)
modifications: extracellular domain papain-solubilized
**Q.** With B2 as the molecule, how does the “APN in the dimeric state at assay concentration” value [6] read?
**A.** Its value is “less than 0.4%”.
